Substrate: Nc1ncnc2c1ncn2[C@@H]1O[C@H](COP(=O)(O)OP(=O)(O)OP(=O)(O)OP(=O)(O)OC[C@H]2O[C@@H](n3cnc4c(N)ncnc43)[C@H](O)[C@@H]2O)[C@@H](O)[C@H]1O
Assay: luciferase bioluminescence assay of liberated ATP
Format: biochemical, Chlamydia trachomatis
Settings: 5.0 mM MgCl2, 100 mM Tris-HCl pH 7.5, room temperature

B1: CT771 (Chlamydia trachomatis L2/434/Bu) (protein)
chain: MMKTKHEYSFGVIPIRFFGTPDRSTLKACFICHTDGKHWGFPKGHAEEKEGPQEAAERELVEETGLGIVNFFPKIFVENYSFNDKEEIFVRKEVTYFLAEVKGEVHADPDEICDVQWLSFQEGLRLLNFPEIRNIVTEADKFVQSYLFAS
Q: Which Km does the source give for B1 here?
A: 333 ± 27 µM

Q: And the kcat?
A: 3.25 ± 0.1 s⁻¹

Source: publication PMC3956076
